# B1: COVA1-16 VH R100bS mutant (antibody, V domains shown)
# VH: QVQLVQSGAEVKKPGASVKVSCKASGYTFTSYYMHWVRQAPGQGLEWMGIINSSGGSTSYAQKFQGRVTMTRDTSTSTVYMELSSLRSEDTAVYYCARPPRNYYDSSGYYQRAEYFQHWGQGTLVTVSS
# VL: DIQLTQSPSSLSASVGDRVTITCQASQDISNYLNWYQQRPGKAPKLLIYDASNLETGVPSRFSGSGSGTDFTFTISSLQPEDIATYYCQQYDNPPLTFGGGTKLEIK
# Molecular target: T1, SARS-CoV-2 RBD, His-tagged, for antibody binding studies (SARS-CoV-2, UniProt P0DTC2)
# T1 construct: source: HEK293F, transient, purified from supernatant (Ni-NTA agarose)
# Assay: BLI
# Settings: both partners purified
binder,measurement,value
B1,binding result,binds

# — article PMC7687367 (Immunity, 2020)
